Literature values, collected in patent US20050118241A1, “Platform for transdermal formulations (ptf)” (priority 2002, published 2005).

Conditions: extensively degraded in liver, kidney and plasma

glucagon
half-life: 3 to 6 min
